Results published in paper PMC6356446, “Involvement of N-glycan in Multiple Receptor Tyrosine Kinases Targeted by Ling-Zhi-8 for Suppressing HCC413 Tumor Progression” (Cancers, 2018).

Tests used:
Assay in all cases: cell-based or functional assay
EGFR = EGFR (human (endogenous in HCC413), UniProt P00533 25-1210, N-glycans (sites not given))
c-Met = c-Met (human (endogenous in HCC413), UniProt P08581 25-1390, N-glycans (sites not given))
HER3 = HER3 (human (endogenous in HCC413), UniProt P21860 20-1342, N-glycans (sites not given))
Chain of HER3 (P21860 20-1342): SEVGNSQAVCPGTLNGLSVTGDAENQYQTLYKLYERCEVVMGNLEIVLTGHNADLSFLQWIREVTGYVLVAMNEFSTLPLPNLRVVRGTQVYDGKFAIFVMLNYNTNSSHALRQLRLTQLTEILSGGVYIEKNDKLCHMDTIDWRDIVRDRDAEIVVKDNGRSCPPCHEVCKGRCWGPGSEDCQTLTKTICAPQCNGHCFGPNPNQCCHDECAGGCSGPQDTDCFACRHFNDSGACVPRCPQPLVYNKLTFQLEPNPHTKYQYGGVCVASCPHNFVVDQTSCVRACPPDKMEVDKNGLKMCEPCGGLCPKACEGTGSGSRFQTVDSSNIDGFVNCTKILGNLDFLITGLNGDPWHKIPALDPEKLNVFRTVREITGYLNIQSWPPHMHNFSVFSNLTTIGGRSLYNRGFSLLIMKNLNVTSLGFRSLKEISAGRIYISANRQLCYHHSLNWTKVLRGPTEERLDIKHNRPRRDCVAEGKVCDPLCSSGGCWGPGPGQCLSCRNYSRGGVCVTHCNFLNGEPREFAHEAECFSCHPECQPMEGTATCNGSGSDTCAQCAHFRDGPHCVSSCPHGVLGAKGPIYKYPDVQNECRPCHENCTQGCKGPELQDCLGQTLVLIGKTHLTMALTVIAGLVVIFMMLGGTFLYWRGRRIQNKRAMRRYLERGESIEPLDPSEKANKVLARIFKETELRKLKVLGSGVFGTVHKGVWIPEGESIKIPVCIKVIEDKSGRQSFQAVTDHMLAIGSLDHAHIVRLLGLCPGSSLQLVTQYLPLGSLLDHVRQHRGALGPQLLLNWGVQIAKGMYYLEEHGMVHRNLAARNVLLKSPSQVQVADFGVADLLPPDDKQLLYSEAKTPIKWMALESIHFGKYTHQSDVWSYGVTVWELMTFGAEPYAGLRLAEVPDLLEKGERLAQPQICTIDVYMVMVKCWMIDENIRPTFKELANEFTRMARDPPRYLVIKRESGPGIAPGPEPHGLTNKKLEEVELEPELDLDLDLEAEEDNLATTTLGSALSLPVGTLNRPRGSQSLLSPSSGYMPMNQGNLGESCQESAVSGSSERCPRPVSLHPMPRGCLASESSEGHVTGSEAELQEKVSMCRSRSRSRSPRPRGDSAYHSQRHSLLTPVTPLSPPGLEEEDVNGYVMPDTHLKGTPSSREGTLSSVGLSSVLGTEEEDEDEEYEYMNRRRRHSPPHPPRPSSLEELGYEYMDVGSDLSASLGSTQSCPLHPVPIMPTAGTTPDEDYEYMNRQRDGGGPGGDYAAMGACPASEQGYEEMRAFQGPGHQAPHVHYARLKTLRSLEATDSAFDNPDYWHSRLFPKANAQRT

Chain of c-Met (P08581 25-1390): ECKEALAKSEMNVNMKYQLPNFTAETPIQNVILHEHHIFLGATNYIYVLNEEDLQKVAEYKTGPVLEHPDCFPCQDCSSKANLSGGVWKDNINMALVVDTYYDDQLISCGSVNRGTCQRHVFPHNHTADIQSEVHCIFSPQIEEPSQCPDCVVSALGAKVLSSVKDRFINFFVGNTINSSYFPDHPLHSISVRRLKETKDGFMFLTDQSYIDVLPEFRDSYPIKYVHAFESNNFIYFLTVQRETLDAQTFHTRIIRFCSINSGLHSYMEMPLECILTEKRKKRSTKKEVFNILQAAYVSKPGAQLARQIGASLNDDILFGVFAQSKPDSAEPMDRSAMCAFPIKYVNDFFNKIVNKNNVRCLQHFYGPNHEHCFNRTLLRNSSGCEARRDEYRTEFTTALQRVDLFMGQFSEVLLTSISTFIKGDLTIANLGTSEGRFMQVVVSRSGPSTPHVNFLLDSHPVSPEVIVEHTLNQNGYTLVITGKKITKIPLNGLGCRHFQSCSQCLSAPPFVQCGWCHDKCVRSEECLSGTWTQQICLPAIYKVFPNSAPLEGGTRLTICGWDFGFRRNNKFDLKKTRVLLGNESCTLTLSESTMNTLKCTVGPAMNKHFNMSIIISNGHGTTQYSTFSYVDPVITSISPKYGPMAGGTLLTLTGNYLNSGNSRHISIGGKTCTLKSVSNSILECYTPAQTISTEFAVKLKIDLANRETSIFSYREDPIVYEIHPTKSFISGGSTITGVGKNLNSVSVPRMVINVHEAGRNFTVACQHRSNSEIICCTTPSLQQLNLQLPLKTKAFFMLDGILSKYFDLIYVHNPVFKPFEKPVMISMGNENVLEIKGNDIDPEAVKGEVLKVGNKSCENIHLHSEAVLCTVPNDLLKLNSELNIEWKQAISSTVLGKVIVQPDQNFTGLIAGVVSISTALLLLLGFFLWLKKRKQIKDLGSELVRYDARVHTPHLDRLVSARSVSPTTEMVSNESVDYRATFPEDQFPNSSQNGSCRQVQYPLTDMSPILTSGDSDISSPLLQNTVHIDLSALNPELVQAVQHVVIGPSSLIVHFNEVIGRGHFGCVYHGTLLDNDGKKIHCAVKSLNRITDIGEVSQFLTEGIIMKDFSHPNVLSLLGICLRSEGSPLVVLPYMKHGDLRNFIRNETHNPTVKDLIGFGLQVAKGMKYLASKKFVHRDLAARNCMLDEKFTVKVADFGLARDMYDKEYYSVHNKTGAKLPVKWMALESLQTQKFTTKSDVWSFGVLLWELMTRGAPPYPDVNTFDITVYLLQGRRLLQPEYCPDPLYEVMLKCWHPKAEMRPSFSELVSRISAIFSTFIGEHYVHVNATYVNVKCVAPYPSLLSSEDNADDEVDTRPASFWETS

B1: Ling-Zhi-8 (natural protein, Ganoderma lucidium, UniProt P14945 1-111, looked up)
chain: MSDTALIFRLAWDVKKLSFDYTPNWGRGNPNNFIDTVTFPKVLTDKAYTYRVAVSGRNLGVKPSYAVESDGSQKVNFLEYNSGYGIADTNTIQVFVVDPDTNNDFIIAQWN
85 to 90%: decrease in phosphorylated ERK in HCC413, LZ-8 0.2 and 0.8 uM, 24 h; Western blot (EGFR) | decrease in phosphorylated ERK in HCC413, LZ-8 0.2 and 0.8 uM, 24 h; Western blot (c-Met) | decrease in phosphorylated ERK in HCC413, LZ-8 0.2 and 0.8 uM, 24 h; Western blot (HER3)
75%: phosphorylated c-jun in HCC413, LZ-8 0.2 and 0.8 uM, 24 h; Western blot (EGFR) | phosphorylated c-jun in HCC413, LZ-8 0.2 and 0.8 uM, 24 h; Western blot (c-Met) | phosphorylated c-jun in HCC413, LZ-8 0.2 and 0.8 uM, 24 h; Western blot (HER3)
50%: phosphorylated JNK in HCC413, LZ-8 0.2 and 0.8 uM, 24 h; Western blot (EGFR) | phosphorylated JNK in HCC413, LZ-8 0.2 and 0.8 uM, 24 h; Western blot (c-Met) | phosphorylated JNK in HCC413, LZ-8 0.2 and 0.8 uM, 24 h; Western blot (HER3)
